B1: diketide-ACP2(Ø): diketide on isolated ACP2 domain without linker region (conjugate)
chain: HHHHHHDRLAGLPRAERTAELVRLVRTSTATVLGHDDPKAVRATTPFKELGFDSLAAVRLRNLLNAATGLRLPSTLVFDHPNASAVAGFLDAELG
B2: diketide-eryLDD(Ø): diketide on the DEBS loading didomain with no C-terminal linker (conjugate)
chain: MSGPRSRTTSRRTPVRIGAVVVASSTSELLDGLAAVADGRPHASVVRGVARPSAPVVFVFPGQGAQWAGMAGELLGESRVFAAAMDACARAFEPVTDWTLAQVLDSPEQSRRVEVVQPALFAVQTSLAALWRSFGVTPDAVVGHSIGELAAAHVCGAAGAADAARAAALWSREMIPLVGNGDMAAVALSADEIEPRIARWDDDVVLAGVNGPRSVLLTGSPEPVARRVQELSAEGVRAQVINVSMAAHSAQVDDIAEGMRSALAWFAPGGSEVPFYASLTGGAVDTRELVADYWRRSFRLPVRFDEAIRSALEVGPGTFVEASPHPVLAAALQQTLDAEGSSAAVVPTLQRGQGGMRRFLLAAAQAFTGGVAVDWTAAYDDVGPNPALCRSSRRPRRKTSRPSPASTGTRHRTCCERLLAVVNGETAALAGREADAEATFRELGLDSVLAAQLRAKVSAAIGREVNIALLYDHPTPRALAEALAAGT
modifications: non-natural residues
notes: diketide on the DEBS loading didomain with no C-terminal linker
B3: holo-ACP4(4): phosphopantetheinylated DEBS ACP4 domain with its natural C-terminal linker (protein)
chain: HHHHHHNVVDRLAGRSESDQVAGLAELVRSHAAAVSGYGSADQLPERKAFKDLGFDSLAAVELRNRLGTATGVRLPSTLVFDHPTPLAVAEHLRDRLFAASPAVDIGDRLDELEKALEALSAEDGHDDVGQRLESLLRRWNSRRADAPSTSAISEDASDDELFSMLDQRFGGGEDL

Key:
Type in all cases: biochemical
[1] = molecular target: T1, (5)M6+TE (Saccharopolyspora erythraea, UniProt Q03133, DEL53-1503); assay: Substrate transfer and elongation assay, acceptor DEBS module 6; settings: 20 μM substrate, 2 hours
T1 construct: The protein was, in each case, a single module of the DEBS PKS fused to the thioesterase (TE) termination region of module 6; first 39 amino acids of module 5 (N-ERL); made in house; host or cells: E. coli (BL21(DE3) with sfp)
Description: (§1) Substrate transfer and elongation assays. Qualitative assays were performed with a diketide-ACP or diketide-PCP substrate either taken directly from the so phosphopantetheinlyation reaction or after further purification of the substrate. These assays were performed with 20 μM diketide-ACP/PCP substrate for 2 hours in the following reaction conditions: 1 μM acceptor module, 0.5 mM ^14C-methylmalonyl CoA, 4 mM NADPH in buffer C, 30° C. After quenching by addition of 250 μL EtOAc and vortexing, the products were extracted with 2×250 μL EtOAc, resolved on a silica gel TLC plate, and visualized on a Packard InstantImager.
(§2) The kinetics of substrate transfer at the module 2-module 3 interface followed by elongation and product release were examined as a function of the k60 μM and kcat/KM values of the overall reaction. […] In many cases, the k60μm values approximate the maximal overall turnover rates, as determined by back calculating the KM value for the reactions. True saturation kinetics were not practical because of the technical limitations (e.g., solubility) and limited supply associated with high molecular weight substrates such as diketide-ACP and diketide-PCP. kcat/KM values were determined by competitive assay of the substrate of interest against a substrate with a known kcat/KM value, as previously described (Wu, et al., (2001) J. Am. Chem. Soc. 123, 6465-6474). […]

[2] = molecular target: T2, (5)M2+TE (Saccharopolyspora erythraea, UniProt Q03131+Q03133); assay: Substrate transfer and elongation assay, acceptor DEBS module 2; settings: 20 μM substrate, 2 hours
T2 construct: The protein was, in each case, a single module of the DEBS PKS fused to the thioesterase (TE) termination region of module 6; first 39 amino acids of module 5 (N-ERL); made in house; host or cells: E. coli (BL21(DE3) with sfp)
Description: as §1, §2

[3] = molecular target: T2, (5)M2+TE; assay: Labeling of holo-ACP4(4) with 14C-2a mediated by (5)M2+TE (back-transfer); settings: 20 μM holo-ACP4(4), 1 mM 14C-2a, with and without 1 μM (5)M2+TE
Description: Labeling of Holo-ACP4(4) with ^14C-2a Mediated by (5)M2+TE. Holo-ACP4(4) (20 μM) was incubated with 1 mM [1-^14C]-labeled 2a (custom synthesized by Amersham Pharmacia, specific activity 55 mCi/mmol) and 1 μM (5)M2+TE in reaction buffer C for 10 min at 30° C. The protein was precipitated with 75% acetone/H2O for 5 min at −80° C. After washing the pellet with 6.25% (w/v) TCA to remove excess salts followed by 500 μL of 75% acetone/H2O to remove residual, unbound 14 C-2a, the precipitated protein was resuspended in 8 μL of buffer A and 4 μL of SDS sample buffer, and resolved on a 420% SDS-PAGE gradient gel (Bio-Rad). The proteins were visualized with Coomassie blue stain and dried, and the radioactivity was detected either on a Packard InstantImager or by exposing the gel to X-ray film.

Molecule	qualitative transfer of diketide to (5)M6+TE [1]	qualitative transfer of diketide to (5)M2+TE [2]	radiolabeling of the ACP by 14C-2a [3]
B1	able to channel the diketide substrate	able to channel the diketide substrate	–
B2	able to channel the diketide substrate	able to channel the diketide substrate	–
B3	–	–	radiolabeled only in the reaction containing (5-M2+TE

Source: patent publication US20060110789A1, “Methods to mediate polyketide synthase module effectiveness” (priority 2002, published 2006)
